# How the values were obtained:
# HLA-B*15:03 = assay: IEDB peptide-MHC binding, purified MHC/competitive/radioactivity; filed as Kd, often an IC50 or EC50 that approximates it; ≥ and ≤ were set here for values at or beyond the usual limits of such assays; conditions: source organism: Vaccinia virus WR
# HLA-A*02:01 [1] = assay: as above
# HLA-A*02:03 = assay: as above
# HLA-A*02:01 [2] = assay: IEDB peptide-MHC binding, purified MHC/competitive/fluorescence; filed as Kd, often an IC50 or EC50 that approximates it; ≥ and ≤ were set here for values at or beyond the usual limits of such assays; conditions: source organism: Variola virus
# HLA-B*48:01 = assay: IEDB peptide-MHC binding, purified MHC/direct/fluorescence; filed as Kd, often an IC50 or EC50 that approximates it; ≥ and ≤ were set here for values at or beyond the usual limits of such assays
# HLA-B*15:01 [3] = assay: IEDB peptide-MHC binding, purified MHC/competitive/radioactivity; filed as Kd, often an IC50 or EC50 that approximates it; ≥ and ≤ were set here for values at or beyond the usual limits of such assays; conditions: source organism: Vaccinia virus WR
# HLA-A*26:01 = assay: IEDB peptide-MHC binding, purified MHC/competitive/fluorescence; filed as Kd, often an IC50 or EC50 that approximates it; ≥ and ≤ were set here for values at or beyond the usual limits of such assays; conditions: source organism: Escherichia coli str. K-12 substr. MG1655
# HLA-B*40:01 [4] = assay: IEDB peptide-MHC binding, purified MHC/competitive/radioactivity; filed as Kd, often an IC50 or EC50 that approximates it; ≥ and ≤ were set here for values at or beyond the usual limits of such assays; conditions: source organism: Dengue virus 2 Jamaica/1409/1983
# HLA-B*40:01 [5] = assay: IEDB peptide-MHC binding, purified MHC/direct/fluorescence; filed as Kd, often an IC50 or EC50 that approximates it; ≥ and ≤ were set here for values at or beyond the usual limits of such assays; conditions: source organism: Yellow fever virus
# HLA-B*15:01 [6] = assay: as above; conditions: source organism: Yellow fever virus
# HLA-B*46:01 = assay: as above; conditions: source organism: Yellow fever virus
# HLA-B*07:02 = assay: as above; conditions: source organism: Yellow fever virus
# HLA-A*02:01 [7] = assay: as above; conditions: source organism: Yellow fever virus
# HLA-A*01:01 = assay: as above; conditions: source organism: Yellow fever virus
# HLA-B*44:02 = assay: as above; conditions: source organism: Yellow fever virus
# HLA-B*57:01 = assay: as above; conditions: source organism: Yellow fever virus
# HLA-A*69:01 = assay: as above; conditions: source organism: Yellow fever virus
# HLA-A*03:01 = assay: as above; conditions: source organism: Yellow fever virus
# HLA-B*58:01 = assay: as above; conditions: source organism: Yellow fever virus
# HLA-B*51:01 = assay: IEDB peptide-MHC binding, purified MHC/competitive/radioactivity; filed as Kd, often an IC50 or EC50 that approximates it; ≥ and ≤ were set here for values at or beyond the usual limits of such assays; conditions: source organism: Dengue virus 2 Jamaica/1409/1983
sequence,measurement,setting,value
AAFEFINSL,Kd,HLA-B*15:03,4.55 nM
ALKRAQSEL,Kd,HLA-A*02:01 [1]; source organism: Homo sapiens,≥ 41800 nM
same,Kd,HLA-A*02:03; source organism: Homo sapiens,23.3 nM
AMLNGLIYV,Kd,HLA-A*02:01 [2],1.3 nM
AQAELDAAF,Kd,HLA-B*48:01; source organism: Salmonella enterica subsp. enterica serovar Paratyphi A str. ATCC 9150,696 nM
AQVTCLKFL,Kd,HLA-B*48:01; source organism: Cryptosporidium parvum Iowa II,1670 nM
CSAPPGQHM,Kd,HLA-B*15:01 [3],52.7 nM
same,Kd,HLA-B*15:03,24 nM
DDVARAWSL,Kd,HLA-B*48:01; source organism: Mycobacterium tuberculosis str. Haarlem,≥ 20000 nM
DVAKIEAPL,Kd,HLA-A*26:01,324 nM
EEEEQTLTIL,Kd,HLA-B*40:01 [4],10.4 nM
ERWFVRNPF,Kd,HLA-B*40:01 [5],≥ 20000 nM
same,Kd,HLA-B*15:01 [6],≥ 20000 nM
same,Kd,HLA-B*46:01,≥ 20000 nM
same,Kd,HLA-B*07:02,≥ 20000 nM
same,Kd,HLA-A*02:01 [7],≥ 20000 nM
same,Kd,HLA-A*01:01,≥ 20000 nM
same,Kd,HLA-B*44:02,≥ 20000 nM
same,Kd,HLA-B*57:01,≥ 20000 nM
same,Kd,HLA-A*69:01,≥ 20000 nM
same,Kd,HLA-B*48:01; source organism: Yellow fever virus,≥ 20000 nM
same,Kd,HLA-A*03:01,≥ 20000 nM
same,Kd,HLA-B*58:01,≥ 20000 nM
FLTIPPTAGI,Kd,HLA-B*51:01,343 nM
same,Kd,HLA-A*02:03; source organism: Dengue virus 2 Jamaica/1409/1983,9.79 nM
FQVVNPHLL,Kd,HLA-B*15:03,40.3 nM
FSGSFASIF,Kd,HLA-B*15:03,0.318 nM
GLQSQQGHL,Kd,HLA-A*02:01 [1]; source organism: Hepatitis B virus subtype ayw,≥ 5000 nM
GLTYSQLMT,Kd,HLA-A*02:01 [1]; source organism: Lassa virus Josiah,12500 nM
